The record followed here is patent US20160003843A1 (published 2016).

Ends that are not written are not given here.

The target in assay [1] is T1, wild-type peptide KGNYVVTDH (NusA-KGNYVVTDH) (also: fused to NusA, biotinylated on biotin acceptor peptide (BirA), N-terminal His6 tag).
T1 construct: also called WT Asp; the native target for the 1i8i Fab; not shown: N-terminal His6 tag and biotin acceptor peptide; NusA, fusion partner
T1 chain: KGNYVVTDH
Put plainly: SPR (Biacore 4000); biotinylated antigen captured on NeutrAvidin CM5 chip, Fab in flow; 1:1 Langmuir fit. As to the method: Surface plasmon resonance data were measured on a Biacore model 4000 (Biacore, Uppsala, Sweden). All proteins were in TBS containing 0.1 mg/mL BSA and 0.01% Tween-20. A Biacore CM5 chip was coated with NeutrAvidin at 3000 RU and biotinylated antigens were captured at <100 RU.
For orientation: Surface plasmon resonance follows binding to a sensor surface in real time, without labels.

Assay [2] concerns the target T2, unphosphorylated Thr peptide (Thr at position 8 of …).
T2 sequence (chain, enzymatically biotinylated on the biotin acceptor peptide (BirA)): KGNYVVTTH
Put plainly: competition phage ELISA; Asp8 to Thr peptide as soluble competitor. For orientation: ELISA stands for enzyme-linked immunosorbent assay.

The target in assay [3] is Tyr mutant peptide (Tyr at position 8 of …). In words: competition phage ELISA; Asp8 to Tyr peptide as soluble competitor.
Assay [4] deals with Ala mutant peptide (Ala at position 8 of …). In words: competition phage ELISA; Asp8 to Ala peptide as soluble competitor.
Assay [5] concerns the target T3, unphosphorylated Ser peptide (Ser at position 8 of …) (also: fused to NusA, biotinylated on biotin acceptor peptide (BirA), N-terminal His6 tag).
T3 construct: also called Ser/Thr (Ser member); not shown: N-terminal His6 tag and biotin acceptor peptide; NusA, fusion partner
T3 chain: KGNYVVTSH
Put plainly: competition phage ELISA; Asp8 to Ser peptide as soluble competitor. From the text: Without being bound by theory, the carboxylate group of Asp8 residue might mimic a phosphorylated residue and thus, the Ab can bind peptides with pSer, pThr, or possibly pTyr in place of Asp8 (Table 5).
Various concentrations of Fab-phage were mixed with a fixed concentration of biotinylated peptide and captured on the NeutrAvidin-coated wells for fifteen minutes. The bound phage were then detected using a horseradish peroxidase (HRP)-conjugated anti-M13 monoclonal (GE Healthcare). For phage competition ELISAs, plates were coated with 10 μg/mL NusA-[…] (the native target for the 1i8i Fab and a weak binder to pSAb, pSTAb, and pYAb), and blocked with 2% BSA. Sub-saturating levels of phage were then pre-bound to the various peptide antigens for two hours at 20° C. and then captured on the NusA-peptide coated plates for fifteen minutes. […] Bound scFv-Fc were detected with HRP-conjugated Protein A (Pierce).

B1: humanized Fab (humanized version of the mouse 1i8i Fab; parent scaffold, CDR H2 loop STGGYN) (Fab, V domains shown)
VH: EVQLVESGGGLVQPGGSLRLSCVTSGFTFRKFGMSWVRQAPGKGLEWVASISTGGYNTYYSDSVKGRFTISRDNSKNTLYLQMNSLRAEDTAVYYCTRGYSSTSYAMDYWGQGTLVTVSS
VL: DIVLTQSPATLSLSPGERATLSCMTSTDIDDDMNWYQQKPGQAPRLLISEGNTLRPGVPARFSGSGSGTDFTLTISSLEPEDFAVYYCLQSFNVPLTFGQGTKVEIKR
notes: also called parent Fab; humanized scaffold
Broadly, the Kd is the free concentration of one partner at which half of the binding sites on the other are occupied at equilibrium, for simple one-to-one binding. A word on the koff: it is the first-order rate constant of dissociation. As usually defined, the kon is the rate constant with which the complex forms. Read a high kon as faster complex formation. Regarding B1, the affinity in assay [1], expressed as Kd, was 9.6 nM. The molecule also registered a koff in assay [1] of 0.0032 s⁻¹. Further, the kon in assay [1] amounted to 338000 M⁻¹ s⁻¹. The fold less binding than to the wild-type Asp8 peptide in assay [2], in assay [3], in assay [4] and in assay [5] was more than 100 fold throughout.
